Laboratory results: patent publication US20240309360A1, “TRANS-ACTIVATORS AND METHODS AND USE THEREOF” (THE GOVERNING COUNCIL OF THE UNIVERSITY OF TORONTO, priority 2021, published 2024)

Tests used:
Type in all cases: cell-based, human
[1] = tested on: EGFP reporter (TetO7) in HEK293T cells; test: Multi-TAD effectors fused to PYL1 recruited to EGFP reporter; settings: PYL1 fusion, 1 μM abscisic acid, 24 or 48 hours
Protocol: Multiple TADs were fused together with PYL1 and tested for transcriptional activity using the PYL1-ABI EGFP reporter system described above. The following TAD fragments were used: CITED1-8 (SEQ ID NO: 47), CITED2-12 (SEQ ID NO: 49), C3orf62-12 (SEQ ID NO: 45), BRD8-25 (SEQ ID NO: 40), ZXDC-12 (SEQ ID NO: 97), KLF7-1 (SEQ ID NO: 72), ATXN7L3-1 (SEQ ID NO: 35), FAM90A1-20 (SEQ ID NO: 60), SPDYE4-3 (SEQ ID NO: 90), YAF2-7 (SEQ ID NO: 96).
Methods: Cells were seeded on 48-well plates. Next day, after cells were between 70-90% confluent, 250 ng of each construct was transfected in each well using (Thermo Fisher Scientific, 11668019) reagent. Each construct was either directly fused TagRFP either directly fused to each component or being co-expressed from the same plasmid was used as a measure of transfection. In each experiment, the same gate for RFP+ cells were used to control for the effect of each construct's expression levels on activity. EGFP reporter cells were expanded from a clonal line to control for level of ABI-dCas9 and gRNA targeting the TetO7 sites upstream of the promoter. For the CD133 induction experiment, a 293T cell line stably expressing ABI-dCas9 and a pool of 5 gRNAs targeting the promoter were used for all activators. CD133 antibody conjugated to APC (Miltenyi Biotec, 130-113-668) was used. […]

[2] = tested on: promoter of CD133 gene in HEK293T cells; test: CD133 induction experiment; settings: PYL1 fusion, 1 μM abscisic acid, pool of 5 gRNAs
Protocol: Up to 2 additional TADs selected from p65 and HSF1 were combined with SPDYE4-CITED1 TADs in different orders and tested for the ability to activate transcription of the PYL1-ABI EGFP reporter system (FIG. 17, left panel) or the endogenous CD133 gene (FIG. 17, right panel).
Methods: Cells were seeded on 48-well plates. Next day, after cells were between 70-90% confluent, 250 ng of each construct was transfected in each well using (Thermo Fisher Scientific, 11668019) reagent. Each construct was either directly fused TagRFP either directly fused to each component or being co-expressed from the same plasmid was used as a measure of transfection. In each experiment, the same gate for RFP+ cells were used to control for the effect of each construct's expression levels on activity. EGFP reporter cells were expanded from a clonal line to control for level of ABI-dCas9 and gRNA targeting the TetO7 sites upstream of the promoter. For the CD133 induction experiment, a 293T cell line stably expressing ABI-dCas9 and a pool of 5 gRNAs targeting the promoter were used for all activators. CD133 antibody conjugated to APC (Miltenyi Biotec, 130-113-668) was used. All activator constructs were fused to PYL1 at their C-terminus and were recruited to their targets by treating the cells with 1 μM abscisic acid for either 24 or 48 hours.

[3] = tested on: 7×TetO-EGFP reporter in HEK293T cells; test: 117 effector domains with rTetR or dCas9 based recruitment systems; settings: rTetR fusion (1 μg/ml doxycycline 48 hours) or PYL1 with dCas9-ABI1
Protocol: A further 117 different combinations of activation domains or fragments of individual activation domains were assayed by fusing them either to PYL1 (to test with the dCas9-ABI1 system) or to rTetR, a transcription factor that binds DNA in the presence of doxycycline. All constructs were tested with the same TetO reporter construct.
Methods: 200 ng of plasmid expressing super activators fused to rTetR in their C terminus and 50 ng DsRed was transfected into HEK293T cells stably expressing 7×TetO-EGFP reporter. One day after transfection, cells were treated with 1 μg/ml doxycycline for 48 hours. After the treatment, cells were analyzed by flow cytometry for EGFP expression

B1: SPDYE4-CITED1-P65-HSF1: multi-component effector of SPDYE4, CITED1, p65 and HSF1 activation domains (protein)
chain: MDPSPQPQSLGLKRKSEWSDESEEELEEELELERAPEPEDTWVVETLCGLKMKLKRKRASSGGSGGSESLSPSAGAQSPAIIDSDPVDEEVLMSLVVELGLDRANELPELWLGQNEFDFTADFPSSCGGSINSRSSGSPKKKRKVGSQYLPDTDDRHRIEEKRKRTYETFKSIMKKSPFSGPTDPRPPPRRIAVPSRSSASVPKPAPQPYPFTSSLSTINYDEFPTMVFPSGQISQASALAPAPPQVLPQAPAPAPAPAMVSALAQAPAPVPVLAPGPPQAVAPPAPKPTQAGEGTLSEALLQLQFDDEDLGALLGNSTDPAVFTDLASVDNSEFQQLLNQGIPVAPHTTEPMLMEYPEAITRLVTGAQRPPDPAPAPLGAPGLPNGLLSGDEDFSSIADMDFSALLGSGSGSGFSVDTSALLDLFSPSVTVPDMSLPDLDSSLASIQELLSPQEPPRPPEAENSSPDSGKQLVHYTAQPLFLLDPGSVDTGSNDLPVLFELGEGSYFSEGDGFAEDPTISLLTGSEPPKAKDPTVS
transcriptional activation of EGFP reporter by TAD fusions [1]: most robust activation
activation of endogenous CD133 gene [2]: most robust activation
activity of effector constructs on TetO reporter [3]: the most active constructs in the system
